PMC2756588

T1: Abp1, P15891
T1 sequence (P15891 535-592, looked up): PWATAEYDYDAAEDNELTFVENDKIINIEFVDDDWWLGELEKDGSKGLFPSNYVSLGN

T2: Bbc1, P47068
T2 sequence (P47068 1-78, looked up): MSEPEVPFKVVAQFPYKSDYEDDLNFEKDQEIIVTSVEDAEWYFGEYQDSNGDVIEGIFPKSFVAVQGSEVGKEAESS

T3: Boi1, P38041
T3 sequence (P38041 1-86, looked up): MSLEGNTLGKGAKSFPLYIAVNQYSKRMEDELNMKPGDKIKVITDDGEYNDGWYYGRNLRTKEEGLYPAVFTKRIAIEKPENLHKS

T4: Boi2, P39969
T4 sequence (P39969 32-116, looked up): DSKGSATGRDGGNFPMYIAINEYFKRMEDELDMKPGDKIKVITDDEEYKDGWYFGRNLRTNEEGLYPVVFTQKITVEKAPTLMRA

T5: Bud14, P27637
T5 sequence (P27637 247-328, looked up): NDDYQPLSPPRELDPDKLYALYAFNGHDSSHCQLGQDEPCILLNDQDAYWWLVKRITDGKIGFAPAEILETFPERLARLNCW

T6: Bzz1-1, P38822
T6 sequence (P38822 478-572, looked up): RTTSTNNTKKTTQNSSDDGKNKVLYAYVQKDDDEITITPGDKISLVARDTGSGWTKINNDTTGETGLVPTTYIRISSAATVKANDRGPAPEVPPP

T7: Bzz1-2, P38822
T7 sequence (P38822 568-633, looked up): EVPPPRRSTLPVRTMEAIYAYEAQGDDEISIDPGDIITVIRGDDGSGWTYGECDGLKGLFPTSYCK

T8: Cdc25, P04821
T8 sequence (P04821 50-136, looked up): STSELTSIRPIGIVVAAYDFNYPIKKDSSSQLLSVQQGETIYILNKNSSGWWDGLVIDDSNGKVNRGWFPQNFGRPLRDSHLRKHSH

T9: Cyk3, Q07533
T9 sequence (Q07533 1-83, looked up): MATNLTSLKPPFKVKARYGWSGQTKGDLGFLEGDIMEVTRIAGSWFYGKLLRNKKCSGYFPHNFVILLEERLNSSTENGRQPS

T10: Fus1, P11710
T10 sequence (P11710 432-512, looked up): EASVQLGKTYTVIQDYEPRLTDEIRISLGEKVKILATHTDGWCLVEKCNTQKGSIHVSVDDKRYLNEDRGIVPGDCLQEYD

T11: Hof1, Q05080
T11 sequence (Q05080 590-669, looked up): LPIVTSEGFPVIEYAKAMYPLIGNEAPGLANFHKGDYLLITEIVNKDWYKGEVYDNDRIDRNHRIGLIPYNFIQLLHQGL

T12: Hse1, P38753
T12 sequence (P38753 208-285, looked up): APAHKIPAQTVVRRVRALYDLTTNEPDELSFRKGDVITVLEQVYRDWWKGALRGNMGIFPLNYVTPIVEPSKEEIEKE

T13: Lsb1, P53281
T13 sequence (P53281 45-122, looked up): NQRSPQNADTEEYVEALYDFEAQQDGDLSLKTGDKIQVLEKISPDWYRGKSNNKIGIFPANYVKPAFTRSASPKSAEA

T14: Lsb3, P43603
T14 sequence (P43603 385-451, looked up): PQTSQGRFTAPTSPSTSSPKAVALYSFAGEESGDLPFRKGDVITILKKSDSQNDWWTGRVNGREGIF

T15: Lsb4, P32793
T15 sequence (P32793 402-468, looked up): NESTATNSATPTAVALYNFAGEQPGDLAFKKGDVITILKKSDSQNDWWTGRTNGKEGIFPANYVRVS

T16: Myo5, Q04439
T16 sequence (Q04439 1072-1160, looked up): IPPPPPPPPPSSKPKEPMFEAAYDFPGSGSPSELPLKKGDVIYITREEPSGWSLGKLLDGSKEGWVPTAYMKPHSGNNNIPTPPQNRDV

T17: Nbp2, Q12163
T17 sequence (Q12163 103-180, looked up): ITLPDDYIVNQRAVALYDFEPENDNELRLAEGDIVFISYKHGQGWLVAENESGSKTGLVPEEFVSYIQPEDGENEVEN

T18: Pex13, P80667
T18 sequence (P80667 295-386, looked up): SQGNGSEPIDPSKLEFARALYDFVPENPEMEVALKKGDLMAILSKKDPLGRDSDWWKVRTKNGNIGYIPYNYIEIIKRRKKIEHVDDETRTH

T19: Pin3, Q06449
T19 sequence (Q06449 53-122, looked up): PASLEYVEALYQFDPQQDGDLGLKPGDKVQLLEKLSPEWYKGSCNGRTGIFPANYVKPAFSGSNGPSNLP

T20: Sla1-2, P32790
T20 sequence (P32790 60-140, looked up): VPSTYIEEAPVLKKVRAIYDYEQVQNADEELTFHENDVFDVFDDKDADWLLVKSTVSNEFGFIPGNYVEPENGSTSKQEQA

T21: Sla1-3, P32790
T21 sequence (P32790 344-424, looked up): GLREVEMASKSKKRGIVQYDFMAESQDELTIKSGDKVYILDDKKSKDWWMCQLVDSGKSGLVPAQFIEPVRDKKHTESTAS


Tests used:
Assay in all cases: SPOT array
[1] = target: T1, Abp1, P15891; conditions: median of control spots 935
[2] = target: T2, Bbc1, P47068; conditions: median of control spots 796
[3] = target: Bem1-1, P29366; conditions: median of control spots 4282
Sequence of Bem1-1, P29366 (P29366 55-141): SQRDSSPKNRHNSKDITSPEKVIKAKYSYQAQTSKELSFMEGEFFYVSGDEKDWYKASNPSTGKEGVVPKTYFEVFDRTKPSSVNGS

[4] = target: Bem1-2, P29366; conditions: median of control spots 4347
Sequence of Bem1-2, P29366 (P29366 139-227): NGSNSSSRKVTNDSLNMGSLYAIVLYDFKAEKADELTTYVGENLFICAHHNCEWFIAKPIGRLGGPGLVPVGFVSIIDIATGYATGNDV

[5] = target: T3, Boi1, P38041; conditions: median of control spots 1162
[6] = target: T4, Boi2, P39969; conditions: median of control spots 1161
[7] = target: T5, Bud14, P27637; conditions: median of control spots 956
[8] = target: T6, Bzz1-1, P38822; conditions: median of control spots 4446
[9] = target: T7, Bzz1-2, P38822; conditions: median of control spots 4538
[10] = target: T8, Cdc25, P04821; conditions: median of control spots 969
[11] = target: T9, Cyk3, Q07533; conditions: median of control spots 1451
[12] = target: T10, Fus1, P11710; conditions: median of control spots 1200
[13] = target: GST; conditions: median of control spots 978
[14] = target: T11, Hof1, Q05080; conditions: median of control spots 4086
[15] = target: T12, Hse1, P38753; conditions: median of control spots 1727
[16] = target: T13, Lsb1, P53281; conditions: median of control spots 388
[17] = target: T14, Lsb3, P43603; conditions: median of control spots 406
[18] = target: T15, Lsb4, P32793; conditions: median of control spots 397
[19] = target: Myo3, P36006; conditions: median of control spots 468
[20] = target: T16, Myo5, Q04439; conditions: median of control spots 471
[21] = target: T17, Nbp2, Q12163; conditions: median of control spots 357
[22] = target: T18, Pex13, P80667; conditions: median of control spots 1341
[23] = target: T19, Pin3, Q06449; conditions: median of control spots 2171
[24] = target: Rvs167, P39743; conditions: median of control spots 2707
Sequence of Rvs167, P39743 (P39743 419-482): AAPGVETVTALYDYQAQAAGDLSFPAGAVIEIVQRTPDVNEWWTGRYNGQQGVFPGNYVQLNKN

[25] = target: Sho1, P40073; conditions: median of control spots 1148
Sequence of Sho1, P40073 (P40073 287-367): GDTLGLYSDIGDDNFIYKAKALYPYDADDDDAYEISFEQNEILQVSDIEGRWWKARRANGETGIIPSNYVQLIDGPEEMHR

[26] = target: T20, Sla1-2, P32790; conditions: median of control spots 712
[27] = target: T21, Sla1-3, P32790; conditions: median of control spots 5475

Binder | SPOT intensity [1] | SPOT intensity [2] | SPOT intensity [3] | SPOT intensity [4] | SPOT intensity [5] | SPOT intensity [6] | SPOT intensity [7] | SPOT intensity [8] | SPOT intensity [9] | SPOT intensity [10] | SPOT intensity [11] | SPOT intensity [12] | SPOT intensity [13] | SPOT intensity [14] | SPOT intensity [15] | SPOT intensity [16] | SPOT intensity [17] | SPOT intensity [18] | SPOT intensity [19] | SPOT intensity [20] | also measured
RRRDFGAPANKRPRR | 165 | 20 | 0 | 4 | 0 | 1 | 4 | 3 | 7 | 11 | 3 | 8 | 3 | 0 | 5 | 0 | 10 | 4 | 16 | 2 | SPOT intensity [21]: 2; SPOT intensity [22]: 2; SPOT intensity [23]: 9; SPOT intensity [24]: 0; SPOT intensity [25]: 90; SPOT intensity [26]: 0; SPOT intensity [27]: 30
NGRRRPKFRVQLSGN | 209 | 227 | 0 | 6 | 16 | 5 | 23 | 1 | 0 | 87 | 8 | 75 | 3 | 24 | 53 | 114 | 8 | 9 | 30 | 2 | SPOT intensity [21]: 63; SPOT intensity [22]: 5; SPOT intensity [23]: 11; SPOT intensity [24]: 0; SPOT intensity [25]: 155; SPOT intensity [26]: 5; SPOT intensity [27]: 221
RRARRQMGIPTISQV | 95 | 58 | 3 | 12 | 3 | 1 | 41 | 2 | 25 | 120 | 2 | 1 | 7 | 3 | 11 | 35 | 6 | 16 | 10 | 20 | SPOT intensity [21]: 2; SPOT intensity [22]: 19; SPOT intensity [23]: 33; SPOT intensity [24]: 2; SPOT intensity [25]: 79; SPOT intensity [26]: 15; SPOT intensity [27]: 14
RKRRTHLRLPLIRSN | 75 | 101 | 0 | 0 | 2 | 0 | 23 | 1 | 0 | 59 | 8 | 55 | 4 | 0 | 6 | 3 | 0 | 0 | 5 | 0 | SPOT intensity [21]: 9; SPOT intensity [22]: 0; SPOT intensity [23]: 3; SPOT intensity [24]: 0; SPOT intensity [25]: 47; SPOT intensity [26]: 0; SPOT intensity [27]: 14
